Assay [1] has as its target T1, β2-microglobulin, biotinylated (Homo sapiens, UniProt P61769).
T1 construct: β2-microglobulin, human; Surmise: such E. coli constructs are usually the mature protein with an added first methionine; also called human β2-microglobulin; recombinant β2-microglobulin
Briefly: BLI; Octet-BLI K2; SA sensors loaded with 50 nM biotinylated β2-microglobulin; Nb24 variants in solution (25-400 nM in Fig. 5C); PBS + 0.05% Tween-20, 30°C, 1000 rpm; global fit, 1:1 partial dissociation binding model; KD mean of 3 independent experiments. The following applies: both partners purified. On the technique in general: Biolayer interferometry detects binding as a change in optical thickness at a sensor tip.

Assay [2] deals with T2, SARS-CoV-2 Spike receptor-binding domain (RBD), biotinylated (SARS-CoV-2, strain ; …, UniProt P0DTC2).
T2 construct: also called SARS-CoV-2 RBD; SarS-CoV-2 RBD
Briefly: BLI. The following applies: both partners purified.

T1 sequence (P61769 21-119): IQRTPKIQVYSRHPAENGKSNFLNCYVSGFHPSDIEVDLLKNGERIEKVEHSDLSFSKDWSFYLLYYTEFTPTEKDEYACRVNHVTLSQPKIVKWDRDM

B1: Nb24 humanised variant, AbNatiV Exhaustive sampling (+buried) (VHH)
VHH: EVQLVESGGGLVQPGGSLRLSCAASGYTDSRYCMAWFRQAPGKGLEWVARINSGRDITYYADSVKGRFTISRDNAKNTVYLQMDSLKPEDTAVYYCATDIPLRCRDIVAKGGDGFRYWGQGTLVTVSS
notes: Parent: Nb24 WT; also called Exhausted +buried; source: E. coli Shuffle LysY, secreted to the medium, purified (His Mag Sepharose Excel beads, SEC Superdex 75)
In the case of B1, the binding result in assay [1] is recorded as “binds”.

B2: Nb24 humanised variant, Frequency and Structure-based humanisation (Llamanade) (VHH)
VHH: QVQLVESGGGLVQPGGSLRLSCAASGYTDSRYCMAWFRQAPGKGLEWVARINSGRDITYYADSVKGRFTISRDNAKNTLYLQMNSLRAEDTAVYYCARDIPLRCRDIVAKGGDGFRYWGQGTLVTVSS
notes: Parent: Nb24 WT; also called Frequency & structure-based; Frequency and Structure-based humanised variant; source: E. coli Shuffle LysY, secreted to the medium, purified (His Mag Sepharose Excel beads, SEC Superdex 75)
As to B2, in assay [1], the binding result was “binds”.

B3: mNb6 humanised variant, AbNatiV Enhanced sampling (+buried) (VHH)
VHH: EVQLVESGGGLVQPGGSLRLSCAASGYIFGRNAMGWVRQAPGKGREWVSGITRRGSITYYADSVKGRFTISRDNAKNTVYLQMNSLRPEDTAVYYCAADPASPAYGDYWGQGTQVTVSS
notes: Parent: mNb6 WT
For B3, in assay [2], the binding result was “binds”.

B4: mNb6 humanised variant, AbNatiV Enhanced sampling (VHH)
VHH: EVQLVESGGGLVQPGGSLRLSCAASGYIFGRNAMGWYRQAPGKERELVAGITRRGSITYYADSVKGRFTISRDNAKNTVFLQMNSLRPEDTAVYYCAADPASPAYGDYWGQGTQVTVSS
notes: Parent: mNb6 WT; also called mNb6 Enhanced
Regarding B4, the affinity in assay [2], expressed as Kd, was 0.86 nM.

B5: mNb6 humanised variant, AbNatiV Exhaustive sampling (VHH)
VHH: EVQLVESGGGLVQPGGSLRLSCAASGYIFGRNAMGWYRQAPGKGLEWVAGITRRGSITYYADSVKGRFTISRDNAKNTVFLQMDSLRPEDTAVYYCAADPASPAYGDYWGQGTLVTVSS
notes: Parent: mNb6 WT; also called mNb6 Exhaustive
Turning to B5, the Kd (commonly the equilibrium constant for the complex coming apart) in assay [2] stood at 15 nM.

B6: mNb6 humanised variant, Frequency and Structure-based humanisation (Llamanade) (VHH)
VHH: QVQLVESGGGLVQPGGSLRLSCAASGYIFGRNAMGWVRQAPGKGLEWVAGITRRGSITYYADSVKGRFTISRDNAKNTLYLQMNSLRAEDTAVYYCARDPASPAYGDYWGQGTLVTVSS
notes: Parent: mNb6 WT; also called Frequency & structure-based; Frequency and Structure-based variant
On to B6, for which the binding result in assay [2] is “no binding (tested: 500 nM)”.

B7: mNb6 humanised variant, AbNatiV Exhaustive sampling (+buried) (VHH)
VHH: EVQLVESGGGLVQPGGSLRLSCAASGYIFGRNAMGWVRQAPGKGLEWVAGITRRGSITYYADSVKGRFTISRDNAKNTVYLQMDSLRPEDTAVYYCAADPASPAYGDYWGQGTLVTVSS
notes: Parent: mNb6 WT; also called mNb6 Exhausted Sampling + buried; Exhausted +buried
On to B7, for which the binding result in assay [2] is “binds”.

B8: Nb24 WT nanobody (VHH)
VHH: QVQLQESGGGSVQAGGSLRLSCAASGYTDSRYCMAWFRQAPGKEREWVARINSGRDITYYADSVKGRFTFSQDNAKNTVYLQMDSLEPEDTATYYCATDIPLRCRDIVAKGGDGFRYWGQGTQVTVSS
notes: source: E. coli Shuffle LysY, secreted to the medium, purified (His Mag Sepharose Excel beads, SEC Superdex 75)
Take B8: in assay [1], the Kd worked out at 79 nM.

B9: Nb24 humanised variant, AbNatiV Exhaustive sampling (VHH)
VHH: EVQLVESGGGLVQPGGSLRLSCAASGYTDSRYCMAWFRQAPGKGLEWVARINSGRDITYYADSVKGRFTFSRDNAKNTVYLQMDSLRPEDTAVYYCATDIPLRCRDIVAKGGDGFRYWGQGTQVTVSS
notes: Parent: Nb24 WT; also called Nb24 Exhaustive; source: E. coli Shuffle LysY, secreted to the medium, purified (His Mag Sepharose Excel beads, SEC Superdex 75)
On to B9, for which the Kd in assay [1] turned out to be 75 nM.

B10: Nb24 humanised variant, AbNatiV Enhanced sampling (VHH)
VHH: EVQLLESGGGLVQPGGSLRLSCAASGYTDSRYCMAWFRQAPGKEREWVARINSGRDITYYADSVKGRFTFSRDNSKNTVYLQMDSLRPEDTAVYYCATDIPLRCRDIVAKGGDGFRYWGQGTQVTVSS
notes: Parent: Nb24 WT; also called Nb24 Enhanced; source: E. coli Shuffle LysY, secreted to the medium, purified (His Mag Sepharose Excel beads, SEC Superdex 75)
Consider B10, for which, in assay [1], the Kd was 68 nM.

B11: Nb24 humanised variant, AbNatiV Enhanced sampling (+buried) (VHH)
VHH: EVQLLESGGGLVQPGGSLRLSCAASGYTDSRYCMAWFRQAPGKEREWVARINSGRDITYYADSVKGRFTVSRDNSKNTVYLQMDSLRPEDTAVYYCATDIPLRCRDIVAKGGDGFRYWGQGTQVTVSS
notes: Parent: Nb24 WT; source: E. coli Shuffle LysY, secreted to the medium, purified (His Mag Sepharose Excel beads, SEC Superdex 75)
Consider B11, for which the binding result in assay [1] is “binds”.
